Legend:
Test in all cases: flow cytometry, transiently transfected HEK293-6E cells
[1] = molecular target: T1, Human LILRB4 on transiently transfected HEK293-6E cells (human, UniProt Q8NHJ6 22-448)
T1 construct: whole, on cells; also called hLILRB4

[2] = molecular target: T2, Human LILRA5 on transiently transfected HEK293-6E cells (human, UniProt A6NI73 42-299)
T2 construct: whole, on cells; also called hLILRA5

[3] = molecular target: T3, Human LILRB3 on transiently transfected HEK293-6E cells (human, UniProt O75022 24-631)
T3 construct: whole, on cells; also called hLILRB3

[4] = molecular target: T4, Human LILRB5 on transiently transfected HEK293-6E cells (human, UniProt O75023 24-590)
T4 construct: whole, on cells; also called hLILRB5
T4 sequence (O75023 24-590): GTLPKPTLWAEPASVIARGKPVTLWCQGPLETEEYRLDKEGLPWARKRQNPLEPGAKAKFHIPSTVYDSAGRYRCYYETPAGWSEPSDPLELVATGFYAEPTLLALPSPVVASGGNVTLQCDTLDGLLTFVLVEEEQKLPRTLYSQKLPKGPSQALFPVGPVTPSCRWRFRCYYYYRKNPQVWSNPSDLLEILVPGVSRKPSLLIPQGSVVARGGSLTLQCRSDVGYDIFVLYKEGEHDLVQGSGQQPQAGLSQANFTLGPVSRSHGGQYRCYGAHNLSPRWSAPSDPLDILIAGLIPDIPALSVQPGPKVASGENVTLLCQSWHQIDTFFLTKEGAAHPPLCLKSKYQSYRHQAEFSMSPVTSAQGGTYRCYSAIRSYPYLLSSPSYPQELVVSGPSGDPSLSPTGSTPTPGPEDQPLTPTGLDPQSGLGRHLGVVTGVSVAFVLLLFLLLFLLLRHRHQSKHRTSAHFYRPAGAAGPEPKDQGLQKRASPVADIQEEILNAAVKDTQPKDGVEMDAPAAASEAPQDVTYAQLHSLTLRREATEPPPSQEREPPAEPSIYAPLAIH

[5] = molecular target: T5, Human LILRA1 on transiently transfected HEK293-6E cells (human, UniProt O75019 17-489)
T5 construct: whole, on cells; also called hLILRA1
T5 sequence (O75019 17-489): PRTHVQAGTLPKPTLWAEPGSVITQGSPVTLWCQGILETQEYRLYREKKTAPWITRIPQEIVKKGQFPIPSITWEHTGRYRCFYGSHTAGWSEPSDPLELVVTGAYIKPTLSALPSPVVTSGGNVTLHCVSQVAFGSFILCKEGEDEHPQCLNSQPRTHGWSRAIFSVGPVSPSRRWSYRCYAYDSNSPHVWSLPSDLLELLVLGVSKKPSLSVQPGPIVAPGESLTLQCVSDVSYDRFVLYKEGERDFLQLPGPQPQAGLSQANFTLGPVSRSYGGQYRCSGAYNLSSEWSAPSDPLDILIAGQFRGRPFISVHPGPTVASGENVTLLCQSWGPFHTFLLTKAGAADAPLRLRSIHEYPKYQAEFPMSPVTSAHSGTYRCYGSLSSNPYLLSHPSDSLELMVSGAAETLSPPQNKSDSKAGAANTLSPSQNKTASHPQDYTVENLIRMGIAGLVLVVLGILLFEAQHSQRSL

[6] = molecular target: T6, Human LILRA4 on transiently transfected HEK293-6E cells (human, UniProt P59901 24-499)
T6 construct: whole, on cells; also called hLILRA4
T6 sequence (P59901 24-499): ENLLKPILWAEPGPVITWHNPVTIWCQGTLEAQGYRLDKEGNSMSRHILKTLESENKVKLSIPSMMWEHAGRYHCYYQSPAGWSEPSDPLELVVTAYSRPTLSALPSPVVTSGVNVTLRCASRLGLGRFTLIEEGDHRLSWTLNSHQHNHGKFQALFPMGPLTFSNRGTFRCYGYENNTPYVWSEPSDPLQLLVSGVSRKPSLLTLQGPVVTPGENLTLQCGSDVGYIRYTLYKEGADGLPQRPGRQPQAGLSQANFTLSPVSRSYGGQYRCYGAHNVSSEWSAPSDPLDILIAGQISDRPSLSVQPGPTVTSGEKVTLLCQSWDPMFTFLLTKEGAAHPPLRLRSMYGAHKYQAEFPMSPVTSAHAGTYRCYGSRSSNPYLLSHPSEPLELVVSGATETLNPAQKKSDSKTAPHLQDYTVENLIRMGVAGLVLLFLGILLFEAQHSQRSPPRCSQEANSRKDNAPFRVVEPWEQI

[7] = molecular target: T7, Human LILRA6 on transiently transfected HEK293-6E cells (human, UniProt Q6PI73 24-481)
T7 construct: whole, on cells; also called hLILRA6
T7 sequence (Q6PI73 24-481): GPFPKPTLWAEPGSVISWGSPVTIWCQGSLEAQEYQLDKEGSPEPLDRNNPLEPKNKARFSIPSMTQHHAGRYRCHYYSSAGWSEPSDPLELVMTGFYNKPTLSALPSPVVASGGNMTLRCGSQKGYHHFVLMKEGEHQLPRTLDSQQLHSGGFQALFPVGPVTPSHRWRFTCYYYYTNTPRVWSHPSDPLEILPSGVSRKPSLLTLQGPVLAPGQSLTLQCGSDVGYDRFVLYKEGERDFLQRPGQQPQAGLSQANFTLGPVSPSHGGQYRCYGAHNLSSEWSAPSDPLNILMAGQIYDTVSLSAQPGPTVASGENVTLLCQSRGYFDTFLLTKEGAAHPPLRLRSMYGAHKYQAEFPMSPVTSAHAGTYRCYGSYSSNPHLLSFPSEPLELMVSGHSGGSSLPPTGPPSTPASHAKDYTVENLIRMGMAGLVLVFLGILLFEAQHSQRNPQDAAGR

[8] = molecular target: T8, Human LILRB1 on transiently transfected HEK293-6E cells (human, UniProt Q8NHL6 24-650)
T8 construct: whole, on cells; also called hLILRB1
T8 sequence (Q8NHL6 24-650): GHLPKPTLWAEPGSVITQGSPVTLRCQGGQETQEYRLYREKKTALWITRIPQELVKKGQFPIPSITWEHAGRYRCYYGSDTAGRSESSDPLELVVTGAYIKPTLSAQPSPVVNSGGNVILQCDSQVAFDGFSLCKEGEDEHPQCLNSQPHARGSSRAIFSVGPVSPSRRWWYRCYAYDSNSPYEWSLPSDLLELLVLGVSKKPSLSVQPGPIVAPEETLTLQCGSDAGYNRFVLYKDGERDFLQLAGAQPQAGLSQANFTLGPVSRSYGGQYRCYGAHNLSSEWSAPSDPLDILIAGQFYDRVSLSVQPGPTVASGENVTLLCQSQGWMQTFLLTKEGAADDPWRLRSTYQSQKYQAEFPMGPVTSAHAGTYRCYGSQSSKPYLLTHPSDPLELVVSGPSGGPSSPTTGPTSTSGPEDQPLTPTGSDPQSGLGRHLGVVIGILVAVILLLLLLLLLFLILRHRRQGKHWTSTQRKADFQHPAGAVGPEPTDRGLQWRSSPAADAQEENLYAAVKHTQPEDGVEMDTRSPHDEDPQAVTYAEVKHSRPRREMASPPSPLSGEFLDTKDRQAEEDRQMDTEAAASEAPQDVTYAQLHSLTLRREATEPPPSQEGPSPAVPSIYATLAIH

[9] = molecular target: T9, Human LILRA2 on transiently transfected HEK293-6E cells (human, UniProt Q8N149 24-483)
T9 construct: whole, on cells; also called hLILRA2
T9 sequence (Q8N149 24-483): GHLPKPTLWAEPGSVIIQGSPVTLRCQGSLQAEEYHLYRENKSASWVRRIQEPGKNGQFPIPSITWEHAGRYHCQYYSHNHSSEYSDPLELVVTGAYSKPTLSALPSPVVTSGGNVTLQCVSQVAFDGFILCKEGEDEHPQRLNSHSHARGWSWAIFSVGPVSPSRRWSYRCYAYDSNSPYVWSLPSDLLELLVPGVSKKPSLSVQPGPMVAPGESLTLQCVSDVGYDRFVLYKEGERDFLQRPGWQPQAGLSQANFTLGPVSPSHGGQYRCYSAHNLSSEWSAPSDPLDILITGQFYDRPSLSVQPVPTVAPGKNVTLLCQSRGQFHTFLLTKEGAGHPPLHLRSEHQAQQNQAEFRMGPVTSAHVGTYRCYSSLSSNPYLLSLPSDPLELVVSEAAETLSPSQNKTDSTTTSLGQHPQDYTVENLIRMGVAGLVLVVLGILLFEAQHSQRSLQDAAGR

[10] = molecular target: T1, Human LILRB4 on transiently transfected …; remark: listed apart in the source
Experimental: (§1) To determine that the anti-LILRB2 antibodies specifically bind to LILRB2 and not other LILRB and LILRA family members, a cross-reactivity assay was performed. Cross-reactivity of the LILRB2 antibodies to other LILRB proteins was assessed by antibody binding to transiently transfected HEK293-6E cells, measured by flow cytometry. Binding was evaluated to HEK293-6E cells transiently transfected with human LILRB-1, -2, -3, -4, and 5 plasmids (Origene, Nos. RC219949, RC217935, RC211228, RC220932, RC206516) or to cells transiently transfected with human LILRA-1, -2, -4, -5, and -6 plasmids (Origene, Nos. RC210808, RC205626, RC220452, RC212310 RC212965). […] Murine primary antibodies to LILRA and LILRB targets and corresponding isotype controls were used to confirm specific binding of all targets tested (R&D Systems) while an AF647 F(ab′)₂ fragment goat anti-mouse antibody (Jackson ImmunoResearch, No. 115-606-062) was used for the detection of bound positive control antibodies. No binding of B2A-IgG4 or B2A-IgG1 to LILRB-1, -3, -4, or -5 was observed, and no binding of either antibody to LILRA-1, -2, -4, -5, or -6 was observed, confirming specificity of these antibodies.
(§2) Select humanized variant antibodies were tested for their ability to bind other LILRB or LILRA family members, using the method and commercially available positive control antibodies of Example 5.

[11] = molecular target: T2, Human LILRA5 on transiently transfected …; remark: listed apart in the source
Experimental: as §1, §2

[12] = molecular target: T3, Human LILRB3 on transiently transfected …; remark: listed apart in the source
Experimental: as §1, §2

[13] = molecular target: T4, Human LILRB5 on transiently transfected …; remark: listed apart in the source
Experimental: as §1, §2

[14] = molecular target: T5, Human LILRA1 on transiently transfected …; remark: listed apart in the source
Experimental: as §1, §2

[15] = molecular target: T6, Human LILRA4 on transiently transfected …; remark: listed apart in the source
Experimental: as §1, §2

[16] = molecular target: T7, Human LILRA6 on transiently transfected …; remark: listed apart in the source
Experimental: as §1, §2

[17] = molecular target: T8, Human LILRB1 on transiently transfected …; remark: listed apart in the source
Experimental: as §1, §2

[18] = molecular target: T10, Human LILRB2 on transiently transfected HEK293-6E cells (human, UniProt Q8N423 22-597)
T10 construct: whole, on cells; also called hLILRB2
T10 sequence (Q8N423 22-597): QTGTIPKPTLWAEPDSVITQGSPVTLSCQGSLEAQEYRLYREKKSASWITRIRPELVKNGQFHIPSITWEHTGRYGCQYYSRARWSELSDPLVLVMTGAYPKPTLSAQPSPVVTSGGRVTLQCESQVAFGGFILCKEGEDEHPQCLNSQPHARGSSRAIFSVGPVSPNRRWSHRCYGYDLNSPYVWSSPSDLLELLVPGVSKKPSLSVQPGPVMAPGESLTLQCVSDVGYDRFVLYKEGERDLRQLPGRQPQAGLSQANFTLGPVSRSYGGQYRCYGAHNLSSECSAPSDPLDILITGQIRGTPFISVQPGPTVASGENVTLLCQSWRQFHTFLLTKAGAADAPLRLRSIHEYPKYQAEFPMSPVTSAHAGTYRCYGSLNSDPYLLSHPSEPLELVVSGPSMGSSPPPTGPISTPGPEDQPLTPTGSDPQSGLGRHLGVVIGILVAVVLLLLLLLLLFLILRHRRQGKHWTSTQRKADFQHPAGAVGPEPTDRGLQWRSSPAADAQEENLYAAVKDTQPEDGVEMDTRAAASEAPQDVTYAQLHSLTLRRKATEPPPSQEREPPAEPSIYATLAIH
Experimental: as §1, §2

[19] = molecular target: T9, Human LILRA2 on transiently transfected …; remark: listed apart in the source
Experimental: as §1, §2

[20] = molecular target: T10, Human LILRB2 on transiently transfected …; remark: listed apart in the source
Experimental: as §1

T2 sequence (A6NI73 42-299): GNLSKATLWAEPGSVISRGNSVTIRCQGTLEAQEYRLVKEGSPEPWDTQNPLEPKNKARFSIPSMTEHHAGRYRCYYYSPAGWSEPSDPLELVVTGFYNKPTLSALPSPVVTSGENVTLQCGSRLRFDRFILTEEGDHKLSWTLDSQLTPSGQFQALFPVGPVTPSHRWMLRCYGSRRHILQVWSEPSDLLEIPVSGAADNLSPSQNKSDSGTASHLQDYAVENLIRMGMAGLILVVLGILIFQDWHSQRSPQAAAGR

Row | binding result [1] | binding result [2] | binding result [3] | binding result [4] | binding result [5] | binding result [6] | binding result [7] | binding result [8] | binding result [9] | Bmax (MFI) [10] [MFI] | Bmax (MFI) [11] [MFI] | Bmax (MFI) [12] [MFI] | Bmax (MFI) [13] [MFI] | Bmax (MFI) [14] [MFI] | BMAX [gMFI] [15] [gMFI] | Bmax (MFI) [16] [MFI] | Bmax (MFI) [17] [MFI] | Bmax (MFI) [18] [MFI] | Bmax (MFI) [19] [MFI] | MFI [20] [MFI] | Binder
1 | no binding | no binding | no binding | no binding | no binding | no binding | no binding | no binding | no binding | 38.5 | 122 | 146 | 145 | 766 | 103 | 202 | 41.3 | 10300 | 33.6 | – | B2H1-35 (antibody, V domains shown, Humanized variant, human IgG1 / kappa) VH: QVQLVESGGRVVQPGTPLRLSCAASGFSLSTYAMSWVRQAPGKGLEWVAWIYNDGSTYYAAWAKGRFTISRDTSKNTLYLQTNSLKPDDTAVYYCAREGDYIGYFNIWGQGTLVTVSS VL: DVVMTQTPSSVSAALGGTVTIKCQASQSIGSNLAWYQLKPGQRPKLLIYAAATLASGGSSRFKGSGSGTDFTLTISSLEPADAATYYCQSYVSGSSDVAFGGGTEVVVK
2 | no binding | no binding | no binding | no binding | no binding | no binding | no binding | no binding | no binding | 40.5 | 123 | 159 | 153 | 855 | 106 | 219 | 42.3 | 10300 | 36.1 | – | B2H1-52 (antibody, V domains shown, Humanized variant, human IgG1 / kappa) VH: EVQLLESGGGLVQPGTSLTLSCAASGFSLSTYAMSWVRQAPGKGLEWIGWIYNDGSTYYAAWAKGRFTISKDTSKTTLYLQITSLRAEDTATYFCAREGDYIGYFNIWGQGTLVTVSS VL: DVVMTQSPSSVSASLGDRVTITCQASQSIGSNLAWYQQKPGQAPKLLIYAAATLASGVPSRFKGSGSGTDFTLTITSLQPADFATYYCQSYVSGSSDVAFGGGTKVEIK
3 | – | – | – | – | – | – | – | – | – | – | – | – | – | – | – | – | – | – | – | 9630 | B2Comp1 (antibody, human IgG4 S228P, lambda, V domains shown, Benchmark antibody, IgG4 heavy chain and lambda light chain; biotin-conjugated when used as the labelled antibody in binning; also called MK-4830 (as designated in WO 2021/138079 A1); αLILRB2B2Comp1) VH: EVQLQQWGAGLLKPSETLSLTCAVYGGSFSGYYWSWIRQPPGKGLEWIGEINHAGSTNYNPSLKSRVTISVDTSKNQFSLKLSSVTAADTAVYYCARLPTRWVTTRYFDLWGRGTLVTVSS VL: ESVLTQPPSVSGAPGQRVTISCTGSSSNIGAGYDVHWYQQLPGTAPKLLIYGDSNRPSGVPDRFSVSKSGASASLAITGLQAEDEADYYCQSFDNSLSAYVFGGGTQLTVLG

— US20240132589A1 (ONCORESPONSE, published 2024)
